“Also recorded” adds a separate entry of the source.
Columns and labels:
HER2 positive cell lines = assay: In vitro uptake assay, HER2 positive cell lines; format: cell-based, human
Text: MCF7-vector (piRES), MCF7-p95HER2 and MCF7-HER2 cells were a kind gift of Jose Baselga's laboratory (17). MCF7 clones, MDA-MB-231 (ATCC, Manassas, Va.), MDA-MB-361 (Sigma-Aldrich), SKBR-3 (ATCC) and SKOV-3 (Sigma-Aldrich) cells were maintained in DMEM. AGS (Sigma-Aldrich), HGC-27 (Sigma-Aldrich), NCI-N87 (ATCC) and OE-33 (ATCC) cells were maintained in RPMI (Sigma-Aldrich). A431 cells (Sigma-Aldrich) were maintained in MEM Eagle medium (Sigma-Aldrich). Growth media were supplemented with 10% FCS (Lonza, Basel, Switzerland), glutamine and antibiotics (both Invitrogen, Paisley, United Kingdom). A431 cells were additionally supplemented with 1% non-essential amino acids. All cells were cultured at 37° C. in a humidified atmosphere containing 5% CO2.
For baseline uptake in HER2 positive or negative lineages, 3×10^5 cells were seeded in complete media in 12-well plates (Corning, Tewksbury Mass.) and allowed to recover overnight. Cells were washed twice with serum-free medium and pulsed with 370 KBq in 500 μL serum-free medium for one h. […]
Cells were washed with PBS, trypsinized, neutralized with complete medium and centrifuged. […] The radioactivity of 100 μL lysate was counted on a Packard Cobra II gamma counter (Perkin Elmer). Radioactivity was normalized to applied radioactivity and protein content, which was determined for each sample by BCA assay (Pierce, Rockford, Ill.). […]

SKOV-3 = assay: Biodistribution, SKOV-3 tumor; format: in vivo, mice
Text: Mice were sacrificed at different time points by exsanguination.

MCF7-HER2 xenografts = assay: PET-CT imaging and kinetic modeling, MCF7-HER2 xenografts; format: in vivo, mice
Text: (§1) Mice were anesthetized through isoflurane inhalation and scanned on a dedicated small animal PET-CT scanner (Siemens Multimodality Inveon, Erlangen, Germany). Low dose CT scans were first acquired (80 kVp, 0.5 mA, 220 degree rotation, 600 ms per degree exposure time, 80 μm reconstruction pixel size) for PET attenuation correction and to obtain an anatomical reference. PET images were acquired following a bolus i.v. injection of approximately 3.7 MBq [^18F]GE-226 in the tail vein. Dynamic emission scans were acquired in list mode format over 60 minutes. The acquired data were sorted into 0.5-mm sinogram bins and 19 time frames for image reconstruction by filtered back projection (4×15 seconds and 4×60 seconds followed by 11×300 seconds). The Siemens Inveon Research Workplace software was used for visualization of radiotracer uptake. 30 to 60-minute cumulative images of the dynamic data were employed to define 3-dimensional (3D) regions of interest (ROI). […] The count densities were averaged for all ROIs at each time point to obtain time versus radioactivity curves (TAC). Tumor TACs were normalized to injected dose measured by a VDC-304 dose calibrator (Veenstra Instruments, Joure, Netherlands) and normalized uptake was expressed as percentage injected dose per mL tissue (NUV; % ID/mL). […]

MDA-MB-361 xenografts = assay: PET-CT imaging and kinetic modeling, MDA-MB-361 xenografts; format: in vivo, mice
Text: as §1

[1] = two-tissue irreversible compartmental model

[^18F]GE-226: HER2-binding 18F-radiolabelled Affibody molecule ZHER2:2891
dependence of uptake/binding on EGFR (HER2 positive cell lines): independent of presence of other targets like EGFR; also recorded: independent of expression | Tissue uptake, SKOV-3 (SKOV-3; 60 min): 17.35 ± 0.83 % ID/g tissue | tumor/muscle ratio (SKOV-3; SKOV-3 tumor, 1 h): ~60 | NUV60 (MCF7-HER2 xenografts; PET, 60 minutes): 10.9±1.5 % ID/mL | Ki (net irreversible uptake rate) (MCF7-HER2 xenografts; [1]): 0.015±0.0035 mL/cm^3/min | NUV60 (MDA-MB-361 xenografts; PET, 60 minutes): 18.2±3.4 % ID/mL | Ki (net irreversible uptake rate) (MDA-MB-361 xenografts; [1]): 0.025±0.0052 mL/cm^3/min
